Here are results for one molecule from US11911397B2, “Anordrin compositions and methods for treating diseases” (Zhejiang Jiachi Development Pharmaceuticals LTD, priority 2014, dated 2024).

For the experiment, the system named is MDA-MB-231 cells. The experiment in a line: MDA-MB-231 cell migration (matrixgel / transwell). The class given is cell-based. The settings on record: 10 nM E2 or 10 ng/ml EGF alone, 20 hours.

Description: As anordrin has been reported as an anti-angiogenic agent resulting in inhibition of cell migration and invasion (16), we studied its ability to modulate MDA-MB-231 cell migration using matrixgel. […] After 20 hours migrated cells were stained and quantified using a plate reader at 560 nm.
Transwell and flow cytometry assay: Cells were starved for 48 hours in phenol red free medium containing 5% charcoal-stripped FBS, and then changed into phenol red free medium for an additional 24 hours. Transwell was performed following the Chemicon kit instructions (CAT #ECM551). Briefly, cells were trypsinized, washed using 1×DPBS containing Ca2+ and Mg2+ (Sigma) and resuspensed in serum and phenol red free medium at a cell density of 0.5×10^6 cells/ml.

B1: EGF: EGF, binds to Her1; used at 10 ng/ml as stimulus (protein, UniProt P01133 23-1207, looked up)
Pro-epidermal growth factor: PQHWSCPEGTLAGNGNSTCVGPAPFLIFSHGNSIFRIDTEGTNYEQLVVDAGVSVIMDFHYNEKRIYWVDLERQLLQRVFLNGSRQERVCNIEKNVSGMAINWINEEVIWSNQQEGIITVTDMKGNNSHILLSALKYPANVAVDPVERFIFWSSEVAGSLYRADLDGVGVKALLETSEKITAVSLDVLDKRLFWIQYNREGSNSLICSCDYDGGSVHISKHPTQHNLFAMSLFGDRIFYSTWKMKTIWIANKHTGKDMVRINLHSSFVPLGELKVVHPLAQPKAEDDTWEPEQKLCKLRKGNCSSTVCGQDLQSHLCMCAEGYALSRDRKYCEDVNECAFWNHGCTLGCKNTPGSYYCTCPVGFVLLPDGKRCHQLVSCPRNVSECSHDCVLTSEGPLCFCPEGSVLERDGKTCSGCSSPDNGGCSQLCVPLSPVSWECDCFPGYDLQLDEKSCAASGPQPFLLFANSQDIRHMHFDGTDYGTLLSQQMGMVYALDHDPVENKIYFAHTALKWIERANMDGSQRERLIEEGVDVPEGLAVDWIGRRFYWTDRGKSLIGRSDLNGKRSKIITKENISQPRGIAVHPMAKRLFWTDTGINPRIESSSLQGLGRLVIASSDLIWPSGITIDFLTDKLYWCDAKQSVIEMANLDGSKRRRLTQNDVGHPFAVAVFEDYVWFSDWAMPSVMRVNKRTGKDRVRLQGSMLKPSSLVVVHPLAKPGADPCLYQNGGCEHICKKRLGTAWCSCREGFMKASDGKTCLALDGHQLLAGGEVDLKNQVTPLDILSKTRVSEDNITESQHMLVAEIMVSDQDDCAPVGCSMYARCISEGEDATCQCLKGFAGDGKLCSDIDECEMGVPVCPPASSKCINTEGGYVCRCSEGYQGDGIHCLDIDECQLGEHSCGENASCTNTEGGYTCMCAGRLSEPGLICPDSTPPPHLREDDHHYSVRNSDSECPLSHDGYCLHDGVCMYIEALDKYACNCVVGYIGERCQYRDLKWWELRHAGHGQQQKVIVVAVCVVVLVMLLLLSLWGAHYYRTQKLLSKNPKNPYEESSRDVRSRRPADTEDGMSSCPQPWFVVIKEHQDLKNGGQPVAGEDGQAADGSMQPTSWRQEPQLCGMGTEQGCWIPVSSDKGSCPQVMERSFHMPSYGTQTLEGGVEKPHSLLSANPLWQQRALDPPHQMELTQ
modifications: Pro-epidermal growth factor
notes: used at 10 ng/ml as stimulus
With B1, the MDA-MB-231 cell migration result is given as “slightly enhanced”.
